Columns and labels:
[1] = biological target: human DCLK1-CAR (on transduced T cells); experiment: flow cytometry of CAR-transduced T cells stained with biotinylated DCLK1 protein (FL2-H), gate 'stained'; controls: T cells 3.19% (small print 3.18%), mock 3.17%
[2] = biological target: mouse DCLK1-CAR (on transduced T cells); experiment: as above

Biotin-labeled DCLK1 (from UniProt O15075 1-740)
% stained [1]: 2.73% | % stained [2]: 11.6%

Source: patent US20260159607A1
